Data taken from publication PMC4379099 (PLoS Pathogens, 2015).

Legend:
MAP kinases = type: cell-based, rice
[1] = target: T1, EFR::XA21::GFP chimeric receptor (EFR ectodomain 1-649 fused to XA21 651-1025, carboxyl-terminal GFP, transgenic rice) (Arabidopsis | rice (Oryza longistaminata)) (UniProt C0LGT6)
T1 sequence: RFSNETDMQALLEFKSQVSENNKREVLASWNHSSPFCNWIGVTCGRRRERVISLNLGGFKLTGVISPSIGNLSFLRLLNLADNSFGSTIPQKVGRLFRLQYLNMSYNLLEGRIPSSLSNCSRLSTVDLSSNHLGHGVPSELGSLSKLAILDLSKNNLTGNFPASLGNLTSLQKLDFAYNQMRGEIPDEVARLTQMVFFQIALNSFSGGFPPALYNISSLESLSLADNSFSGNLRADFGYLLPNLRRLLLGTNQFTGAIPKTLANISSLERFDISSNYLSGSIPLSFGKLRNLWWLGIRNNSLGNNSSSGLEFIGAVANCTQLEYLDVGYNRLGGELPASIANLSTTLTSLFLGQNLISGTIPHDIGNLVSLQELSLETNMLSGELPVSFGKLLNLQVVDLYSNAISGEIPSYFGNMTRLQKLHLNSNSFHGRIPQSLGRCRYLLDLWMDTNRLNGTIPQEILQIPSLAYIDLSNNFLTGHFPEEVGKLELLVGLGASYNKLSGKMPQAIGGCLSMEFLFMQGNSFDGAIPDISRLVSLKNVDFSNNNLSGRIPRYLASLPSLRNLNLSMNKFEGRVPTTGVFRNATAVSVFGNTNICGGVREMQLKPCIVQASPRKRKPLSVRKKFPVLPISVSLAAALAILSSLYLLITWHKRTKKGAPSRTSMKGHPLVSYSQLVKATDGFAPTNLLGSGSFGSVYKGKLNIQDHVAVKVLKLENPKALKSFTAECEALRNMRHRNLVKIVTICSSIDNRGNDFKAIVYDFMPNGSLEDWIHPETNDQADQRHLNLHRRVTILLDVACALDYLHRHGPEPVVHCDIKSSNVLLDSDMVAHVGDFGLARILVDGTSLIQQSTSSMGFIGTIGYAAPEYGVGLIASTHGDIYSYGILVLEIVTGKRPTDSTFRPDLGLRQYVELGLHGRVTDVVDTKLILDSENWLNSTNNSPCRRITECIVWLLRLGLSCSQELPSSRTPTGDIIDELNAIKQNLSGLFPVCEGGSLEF

[2] = target: EFR::GFP (full-length Arabidopsis EFR with a carboxyl-terminal GFP fusion, transgenic rice) (Arabidopsis) (UniProt C0LGT6)

Row | Substance | MAP kinase activation (phospho p44/42 bands, ~47 kDa and 40 kDa) (MAP kinases) | EC50 of ROS production in mature rice leaves (dose response curve) [1] [pM] | EC50 of ROS production in mature rice leaves (dose response curve) [2] [pM]
1 | chitin | increase of two distinct bands |  | 
2 | elf18_(E.coli) (from UniProt P0CE47 1-18) (peptide) |  | 300 | 300
